Measured values taken from US20020086396A1 (Human Genome Sciences, published 2002).

Target: T1, GST-αβ fusion protein (human, UniProt P52655 1-376)
T1 construct: Bacterially expressed and fixed to glutathione sepharose beads; not shown: glutathione-S-transferase (GST), fusion partner
T1 sequence (looked up): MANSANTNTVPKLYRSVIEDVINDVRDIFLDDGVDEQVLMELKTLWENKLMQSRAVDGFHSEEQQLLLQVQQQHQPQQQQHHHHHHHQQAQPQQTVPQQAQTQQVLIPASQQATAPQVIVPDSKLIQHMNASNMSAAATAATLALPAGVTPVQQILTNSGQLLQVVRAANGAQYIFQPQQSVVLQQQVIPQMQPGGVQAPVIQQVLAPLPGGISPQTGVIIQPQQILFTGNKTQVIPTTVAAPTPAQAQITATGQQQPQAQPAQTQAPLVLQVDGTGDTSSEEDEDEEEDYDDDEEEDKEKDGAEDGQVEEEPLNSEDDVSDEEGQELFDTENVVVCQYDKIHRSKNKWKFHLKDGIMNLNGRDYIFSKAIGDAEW
Assay: GST pull-down, 35S-labelled protein on glutathione sepharose beads, autoradiography
Procedure: Bacterial extracts of GST or GST fusion proteins were incubated with glutathione sepharose-4B beads (6-9 μg of GST-fusion protein/20 μl of beads) with shaking at […]. After 2 hours the beads were washed with 50 column volumes of cold buffer A (20 mM NaH₂PO₄ (pH 7.0) 150 mM NaCl, 1 mM DTT, 1 mM PMSF). Washed beads (20 μl) were then incubated with reticulocyte lysates containing 2×10⁴ cpm of ³⁵S labelled protein in 300 μl of protein binding buffer (PBB) for 1 hour at room temperature. PBB contained 20 mM Hepes (pH 7.9), 20% glycerol, 0.5 mM EDTA, 60 mM KCl, 5 mM MgCl2, 0.1% NP40, and 5 mM β-mercaptoethanol. The beads were subsequently washed 4 times in PBB and labeled proteins were eluted with 1M KCl. Samples were analyzed on 15% SDS polyacrylamide gels, enhanced with NaSalycilate, and visualized by autoradiography.

B1: 35S-labelled TFIIA αβ (large subunit of human TFIIA) (other, UniProt P52655 1-376, looked up)
chain: MANSANTNTVPKLYRSVIEDVINDVRDIFLDDGVDEQVLMELKTLWENKLMQSRAVDGFHSEEQQLLLQVQQQHQPQQQQHHHHHHHQQAQPQQTVPQQAQTQQVLIPASQQATAPQVIVPDSKLIQHMNASNMSAAATAATLALPAGVTPVQQILTNSGQLLQVVRAANGAQYIFQPQQSVVLQQQVIPQMQPGGVQAPVIQQVLAPLPGGISPQTGVIIQPQQILFTGNKTQVIPTTVAAPTPAQAQITATGQQQPQAQPAQTQAPLVLQVDGTGDTSSEEDEDEEEDYDDDEEEDKEKDGAEDGQVEEEPLNSEDDVSDEEGQELFDTENVVVCQYDKIHRSKNKWKFHLKDGIMNLNGRDYIFSKAIGDAEW
modifications: 35S label
notes: Made in reticulocyte lysate as 35S-labelled protein; also called αβ subunit; radiolabelled αβ
binding result: no binding
